B1: HBc149H6 (contiguous truncated HBV core protein, aa 1-149, with C terminal His6) (domain or fragment)
chain: MDIDPYKEFGATVELLSFLPSDFFPSVRDLLDTASALYREALESPEHCSPHHTALRQAILCWGELMTLATWVGVNLEDPASRDLVVSYVNTNMGLKFRQLLWFHISCLTFGRETVIEYLVSFGVWIRTPPAYRPPNAPILSTLPETTVV
B2: SplitCore183 (split subunit of coreN plus coreC183) (complex)
chain 1: MDIDPYKEFGATVELLSFLPSDFFPSVRDLLDTASALYREALESPEHCSPHHTALRQAILCWGELMTLATWVGVNLEDP
chain 2: MASRDLVVSYVNTNMGLKFRQLLWFHISCLTFGRETVIEYLVSFGVWIRTPPAYRPPNAPILSTLPETTVVRRRGRSPRRRTPSPRRRRSQSPRRRRSQSRESQC
B3: SplitCore149 (split subunit of coreN plus coreC149) (complex)
chain 1: B2 chain 1
chain 2: MASRDLVVSYVNTNMGLKFRQLLWFHISCLTFGRETVIEYLVSFGVWIRTPPAYRPPNAPILSTLPETTVV

Target: the molecule itself
Assay: native gel or EMSA

Row | Protein | binding result
1 | B1 | binds
2 | B2 | binds
3 | B3 | binds
